Consider two molecules from article doi:10.1101/580043 (bioRxiv, 2019).

One may read the Kd as the concentration at which binding is half-saturated.

Where no end group is shown, it is not given here.

Test [1] deals with T1, Recombinant full-length MBP-tagged PRG-1 (C. elegans, UniProt P90786 1-824).
T1 sequence (looked up): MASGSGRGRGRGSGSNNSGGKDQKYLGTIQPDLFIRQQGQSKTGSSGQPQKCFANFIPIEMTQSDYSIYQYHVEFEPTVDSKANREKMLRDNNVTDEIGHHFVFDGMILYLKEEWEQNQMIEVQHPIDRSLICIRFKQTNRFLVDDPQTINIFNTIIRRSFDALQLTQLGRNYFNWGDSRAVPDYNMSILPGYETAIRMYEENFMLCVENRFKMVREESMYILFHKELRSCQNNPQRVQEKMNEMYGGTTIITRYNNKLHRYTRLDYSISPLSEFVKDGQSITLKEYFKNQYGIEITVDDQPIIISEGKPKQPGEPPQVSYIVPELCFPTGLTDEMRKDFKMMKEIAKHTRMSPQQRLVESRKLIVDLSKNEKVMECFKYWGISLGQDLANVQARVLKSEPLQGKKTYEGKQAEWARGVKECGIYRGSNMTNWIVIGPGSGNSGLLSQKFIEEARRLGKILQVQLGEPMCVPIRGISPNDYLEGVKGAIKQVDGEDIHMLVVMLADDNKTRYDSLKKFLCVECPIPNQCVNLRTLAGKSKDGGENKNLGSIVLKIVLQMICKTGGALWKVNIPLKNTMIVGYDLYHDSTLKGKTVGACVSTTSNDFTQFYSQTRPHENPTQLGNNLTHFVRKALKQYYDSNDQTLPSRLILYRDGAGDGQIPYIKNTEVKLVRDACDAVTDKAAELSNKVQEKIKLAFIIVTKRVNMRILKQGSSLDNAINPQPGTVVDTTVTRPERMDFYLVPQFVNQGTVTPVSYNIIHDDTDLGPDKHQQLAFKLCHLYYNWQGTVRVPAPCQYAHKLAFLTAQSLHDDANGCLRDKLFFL
The test can be described thus: MST.

The target of test [2] is MBP-tagged PRG-1 PIWI domain (C. elegans). The test can be described thus: MST.

B1: Recombinant full-length MBP-tagged DEPS-1 (natural protein, C. elegans, UniProt Q9N303 1-619, looked up)
chain: MSERQSKYFDYQGIVISSTGQDNQDSETDLVYLIQAHGKAAPKNIMYGVSKCAFVPTNLERNFDNIEEAKNLERRSKIPLKFGEVILWNESDCDHDKRIILHIKREKPIYEASSSRNGLILKVGGVIQPTSTTSFWTPLCTVTMPETEATRAEPDVWLYAWIRFETTMKSGLDPFNMTATFESFDSCDPSDQARVCEAPWNAGSPDSKFGVWRPDPKPADSDDEIDIEPREGWHLPEDKWAEVIKMQLGLYVGERLLICKELSQFDFIIPLQKPFSRGTDKTLIYPAVGEYFHFSAIWSMQHNGFLIYELQPVPLLRQHVTSVNGNLLTRVVPASIRGLFVDKEGTLGLIDDPHHLLSFFEFHPAGYEFLKAMAEVRAVRTSENKSVRYRIVRTSGMSIFENWLRDTQFVVGPVKGIRINEDTVICAKHPNVYFKIPNNLKEGIPIGGGVQFVGKRQAGVDSEIMITECSPCPAFTCKNYSVSGDTRLFQVYLKPNCDHEQLAESDSMGFVDFRELETPCRGKFLAWVRESITVNDCRRAATIMEVCSTAICPPLIAMSANSSRATSARTTPAGSSIGSRSSIQSRASAATSVSSNRFVGPSSRRTPSGTPQSSTSSRV
modifications: labelled with atto-488 NHS ester
For B1, the dissociation constant Kd in test [1] came out at 855 nM.
With NFDNIEEAKNLERRSKIPLKFGEVILWNESDCDHDKRIIL (also: labelled with atto-488 NHS ester, site not given here) [DEPS-1 PBS motif peptide], in test [2], the equilibrium dissociation constant (Kd) came to 1900 nM.
